This data set addresses T1, GST-N (TGEV nucleocapsid protein) (Transmissible gastroenteritis …, UniProt P04134 1-382).
T1 sequence: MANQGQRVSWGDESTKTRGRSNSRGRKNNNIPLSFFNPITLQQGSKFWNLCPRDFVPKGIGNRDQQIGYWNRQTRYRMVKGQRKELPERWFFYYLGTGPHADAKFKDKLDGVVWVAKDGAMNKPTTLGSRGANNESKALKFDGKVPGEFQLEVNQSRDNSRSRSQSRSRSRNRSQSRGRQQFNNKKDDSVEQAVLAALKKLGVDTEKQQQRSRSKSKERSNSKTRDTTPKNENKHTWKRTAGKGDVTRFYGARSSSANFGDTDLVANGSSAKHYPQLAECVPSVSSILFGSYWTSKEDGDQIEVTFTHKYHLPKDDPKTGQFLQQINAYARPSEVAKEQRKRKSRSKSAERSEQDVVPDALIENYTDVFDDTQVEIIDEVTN
In words: EMSA. A general note: In EMSA bound probe runs differently from free probe, usually more slowly.

As for UCGAACUAAACGAAAU (ssRNA) [TRS-L], the binding result is listed as “binds”.

These data come from PMC7111943.
